# Results from patent publication US20230265151A1, “GIP/GLP1 CO-AGONIST COMPOUNDS” (priority 2020, published 2023).
# *1 amine or outer side, *2 acyl side, *3 side chain or, on linkers, in order; H or OH if unused. Where no end group is shown, it is not given here. Side-chain parts run from the residue outwards. [ ]: non-standard residue; d: D form. The star is where a group is joined. Decanoyl(10-(4-HOOC-PhO)) = O=C(O)c1ccc(OCCCCCCCCCC(=O)*)cc1; αMePhe(2-F) = C[C@](N)(Cc1ccccc1F)C(=O)O; γGlu = O=C(O)[C@H](CCC(=O)[*:2])N[*:1]; αMeY = C[C@](N)(Cc1ccc(O)cc1)C(=O)O; αMeL = CC(C)C[C@](C)(N)C(=O)O; Orn = NCCC[C@H](N)C(=O)O; AEEA = NCCOCCOCC(=O)O; Aib = CC(C)(N)C(=O)O
# B1: Example 446 (peptide)
# peptide: Y[Aib]EGT[αMePhe(2-F)]TSDV[Aib]I[αMeL]LD[Orn]QAQ[Aib]EFIK([AEEA-AEEA-γGlu-Decanoyl(10-(4-HOOC-PhO))])[αMeY]LIK([AEEA-AEEA-γGlu-Decanoyl(10-(4-HOOC-PhO))])GGPSSGAPPPS-NH2
# B2: Example 444 (peptide)
# peptide: YXEGTXTSDXXIXLDXQAQXXFIKXLIKGGPSSGAPPPS
# modifications: Y-Aib-EGT-αMeF(2F)-TSD-4Pal-Aib-I-αMeL-LD-Orn-QAQ-Aib-4Pal-FIK((2-[2-(2-Amino-ethoxy)-ethoxy]-acetyl)2-(γ-Glu)-CO-(CH2)12-CO2H)-αMeY-LIK((2-[2-(2-Amino-ethoxy)-ethoxy]-acetyl)2-(γ-Glu)-CO-(CH2)12-CO2H)GGPSSGAPPPS-NH2
# B3: Example 462 (peptide)
# peptide: B2 peptide
# modifications: Y-Aib-EGT-αMeF(2F)-TSD-4Pal-Aib-I-αMeL-LD-Orn-QAQ-Aib-Orn-FIK(PEG3-(γ-Glu)-(10-(4-carboxyphenoxy)decanoyl))-αMeY-LIK(PEG3-(γ-Glu)-(10-(4-carboxyphenoxy)decanoyl))GGPSSGAPPPS-NH2
# B4: Example 452 (peptide)
# peptide: B2 peptide
# modifications: not fully specified; Y-Aib-EGT-αMeF(2F)-TSD-4Pal-Aib-I-αMeL-LD-Orn-QAQ-Aib-Orn-FIK(Aoc-(2-[2-(2-Amino-ethoxy)-ethoxy]-acetyl)-(γ-Glu)-CO-(CH2)12-CO2)-αMeY-LIK(Aoc-(2-[2-(2-Amino-ethoxy)-ethoxy]-acetyl)-(γ-Glu)-CO-(CH2)12-CO2)GGPSSGAPPPS-NH2
# B5: Example 451 (peptide)
# peptide: B2 peptide
# modifications: not fully specified; Y-Aib-EGT-αMeF(2F)-TSD-4Pal-Aib-I-αMeL-LD-Orn-QAQ-Aib-Orn-FIK(Ahx-(2-[2-(2-Amino-ethoxy)-ethoxy]-acetyl)-(γ-Glu)-CO-(CH2)12-CO2)-αMeY-LIK(Ahx-(2-[2-(2-Amino-ethoxy)-ethoxy]-acetyl)-(γ-Glu)-CO-(CH2)12-CO2)GGPSSGAPPPS-NH2
# B6: Example 454 (peptide)
# peptide: B2 peptide
# modifications: not fully specified; Y-Aib-EGT-αMeF(2F)-TSD-4Pal-Aib-I-αMeL-LD-Orn-QAQ-Aib-Orn-FIK((2-[2-(2-Amino-ethoxy)-ethoxy]10-(4-carboxyphenoxy)decanoyl))-αMeY-LIK((2-[2-(2-Amino-ethoxy)-ethoxy]-acetyl)-Aoc-(γ-Glu)-(10-(4-carboxyphenoxy)decanoyl))GGPSSGAPPPS-NH2
# B7: Example 467 (peptide)
# peptide: B2 peptide
# modifications: Y-Aib-EGT-αMeF(2F)-TSD-4Pal-Aib-I-αMeL-LD-Orn-QAQ-Aib-Orn-FIK(PEG5-(γ-Glu)-CO-(CH2)12-CO2H)-αMeY-LIK(PEG5-(γ-Glu)-CO-(CH2)12-CO2H)GGPSSGAPPPS-NH2
# B8: Example 456 (peptide)
# peptide: B2 peptide
# modifications: Y-Aib-EGT-αMeF(2F)-TSD-4Pal-Aib-I-αMeL-LD-Orn-QAQ-Aib-Orn-FIK(Aoc-(2-[2-(2-Amino-ethoxy)-ethoxy]-acetyl)-(γ-Glu)-(10-(4-carboxyphenoxy)decanoyl))-αMeY-LIK(Aoc-(2-[2-(2-Amino-ethoxy)-ethoxy]-acetyl)-(γ-Glu)-(10-(4-carboxyphenoxy)decanoyl))GGPSSGAPPPS-NH2
# B9: Example 455 (peptide)
# peptide: B2 peptide
# modifications: Y-Aib-EGT-αMeF(2F)-TSD-4Pal-Aib-I-αMeL-LD-Orn-QAQ-Aib-Orn-FIK(Ahx-(2-[2-(2-Amino-ethoxy)-ethoxy]-acetyl)-(γ-Glu)-(10-(4-carboxyphenoxy)decanoyl))-αMeY-LIK(Ahx-(2-[2-(2-Amino-ethoxy)-ethoxy]-acetyl)-(γ-Glu)-(10-(4-carboxyphenoxy)decanoyl))GGPSSGAPPPS-NH2
# B10: Example 470 (peptide)
# peptide: B2 peptide
# modifications: Y-Aib-EGT-αMeF(2F)-TSD-4Pal-Aib-I-αMeL-LD-Orn-QAQ-Aib-Orn-FIK((2-[2-(2-Amino-ethoxy)-ethoxy]-acetyl)2--Trx-(γ-Glu)-CO-(CH2)12-CO2H)-αMeY-LIK(((2-[2-(2-Amino-ethoxy)-ethoxy]-acetyl)2--Trx(γ-Glu)-CO-(CH2)12-CO2H)GGPSSGAPPPS-NH2)
# B11: Example 469 (peptide)
# peptide: B2 peptide
# modifications: Y-Aib-EGT-αMeF(2F)-TSD-4Pal-Aib-I-αMeL-LD-Orn-QAQ-Aib-Orn-FIK(PEG5-(γ-Glu)-(10-(4-carboxyphenoxy)decanoyl))-αMeY-LIK(PEG5-(γ-Glu)-(10-(4-carboxyphenoxy)decanoyl))GGPSSGAPPPS-NH2
# Biological target: T1, human GIP receptor (human, UniProt P48546 22-466)
# T1 sequence (looked up): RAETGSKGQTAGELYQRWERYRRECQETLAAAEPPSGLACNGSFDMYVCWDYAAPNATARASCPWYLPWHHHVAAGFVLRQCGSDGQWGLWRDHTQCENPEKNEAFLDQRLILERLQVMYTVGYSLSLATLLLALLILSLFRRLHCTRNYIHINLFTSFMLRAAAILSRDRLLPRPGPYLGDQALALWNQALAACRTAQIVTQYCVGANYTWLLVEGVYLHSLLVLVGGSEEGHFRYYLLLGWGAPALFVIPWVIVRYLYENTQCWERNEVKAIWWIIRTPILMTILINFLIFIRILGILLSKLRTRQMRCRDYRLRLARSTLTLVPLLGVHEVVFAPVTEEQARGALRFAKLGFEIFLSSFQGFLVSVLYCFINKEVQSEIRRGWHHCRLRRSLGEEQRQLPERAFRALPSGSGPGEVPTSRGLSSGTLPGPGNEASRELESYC
# Assay: cell-based or functional assay
Binder,cAMP EC50 (1.0% HSA),cAMP Emax (1.0% HSA)
B1,5.14 nM,97%
B2,0.57 nM,–
B3,0.317 nM,–
B4,1.21 nM,–
B5,0.518 nM,–
B6,1.3 nM,–
B7,0.35 nM,–
B8,0.878 nM,–
B9,0.362 nM,–
B10,0.719 nM,–
B11,0.203 nM,–

# Biological target: human glucagon receptor (human, UniProt P47871 26-477)
# Assay: cell-based or functional assay
# Chain of human glucagon receptor (P47871 26-477): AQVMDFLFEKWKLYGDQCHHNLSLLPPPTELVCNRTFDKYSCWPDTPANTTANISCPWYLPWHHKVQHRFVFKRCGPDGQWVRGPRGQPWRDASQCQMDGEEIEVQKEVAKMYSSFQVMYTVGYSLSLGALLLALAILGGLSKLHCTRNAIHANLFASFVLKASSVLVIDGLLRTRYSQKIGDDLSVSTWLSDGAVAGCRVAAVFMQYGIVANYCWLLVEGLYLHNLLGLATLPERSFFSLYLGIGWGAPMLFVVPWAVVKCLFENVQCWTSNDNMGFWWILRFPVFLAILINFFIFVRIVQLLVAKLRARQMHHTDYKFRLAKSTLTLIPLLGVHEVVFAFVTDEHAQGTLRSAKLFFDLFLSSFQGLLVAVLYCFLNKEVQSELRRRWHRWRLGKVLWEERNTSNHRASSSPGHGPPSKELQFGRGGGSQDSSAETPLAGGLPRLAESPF
row,Binder,cAMP EC50 (1.0% HSA)
1,B1,> 9950 nM
2,B2,> 9950 nM
3,B3,> 9950 nM
4,B4,> 9950 nM
5,B5,> 9950 nM
6,B6,> 9950 nM
7,B7,> 10100 nM
8,B8,> 9950 nM
9,B9,> 9950 nM
10,B10,> 9950 nM
11,B11,> 9950 nM

# Biological target: human GLP-1 receptor (human, UniProt P43220 24-463)
# Assay: cell-based or functional assay
Binder,cAMP EC50 (1.0% HSA),cAMP Emax (1.0% HSA)
B1,33.5 nM,105%
B2,7.51 nM,–
B3,3.34 nM,–
B4,16.8 nM,–
B5,7.23 nM,–
B6,18.6 nM,–
B7,2.87 nM,–
B8,14.7 nM,–
B9,5.24 nM,–
B10,4.54 nM,–
B11,2.33 nM,–
